# Source: IntAct's records for PubMed 10487758
# B1: Protein E6 (Human papillomavirus type 16), P03126 (parent)
# chain: MHQKRTAMFQDPQERPRKLPQLCTELQTTIHDIILECVYCKQQLLRREVYDFAFRDLCIVYRDGNPYAVCDKCLKFYSKISEYRHYCYSLYGTTLEQQYNKPLCDLLIRCINCQKPLCPEEKQRHLDKKQRFHNIRGRWTGRCMSCCRSSRTRRETQL
# Variants of: B1
# Settings: with ep300_human EP300, Q09472
# ep300_human EP300, Q09472, sequence (Q09472 whole entry): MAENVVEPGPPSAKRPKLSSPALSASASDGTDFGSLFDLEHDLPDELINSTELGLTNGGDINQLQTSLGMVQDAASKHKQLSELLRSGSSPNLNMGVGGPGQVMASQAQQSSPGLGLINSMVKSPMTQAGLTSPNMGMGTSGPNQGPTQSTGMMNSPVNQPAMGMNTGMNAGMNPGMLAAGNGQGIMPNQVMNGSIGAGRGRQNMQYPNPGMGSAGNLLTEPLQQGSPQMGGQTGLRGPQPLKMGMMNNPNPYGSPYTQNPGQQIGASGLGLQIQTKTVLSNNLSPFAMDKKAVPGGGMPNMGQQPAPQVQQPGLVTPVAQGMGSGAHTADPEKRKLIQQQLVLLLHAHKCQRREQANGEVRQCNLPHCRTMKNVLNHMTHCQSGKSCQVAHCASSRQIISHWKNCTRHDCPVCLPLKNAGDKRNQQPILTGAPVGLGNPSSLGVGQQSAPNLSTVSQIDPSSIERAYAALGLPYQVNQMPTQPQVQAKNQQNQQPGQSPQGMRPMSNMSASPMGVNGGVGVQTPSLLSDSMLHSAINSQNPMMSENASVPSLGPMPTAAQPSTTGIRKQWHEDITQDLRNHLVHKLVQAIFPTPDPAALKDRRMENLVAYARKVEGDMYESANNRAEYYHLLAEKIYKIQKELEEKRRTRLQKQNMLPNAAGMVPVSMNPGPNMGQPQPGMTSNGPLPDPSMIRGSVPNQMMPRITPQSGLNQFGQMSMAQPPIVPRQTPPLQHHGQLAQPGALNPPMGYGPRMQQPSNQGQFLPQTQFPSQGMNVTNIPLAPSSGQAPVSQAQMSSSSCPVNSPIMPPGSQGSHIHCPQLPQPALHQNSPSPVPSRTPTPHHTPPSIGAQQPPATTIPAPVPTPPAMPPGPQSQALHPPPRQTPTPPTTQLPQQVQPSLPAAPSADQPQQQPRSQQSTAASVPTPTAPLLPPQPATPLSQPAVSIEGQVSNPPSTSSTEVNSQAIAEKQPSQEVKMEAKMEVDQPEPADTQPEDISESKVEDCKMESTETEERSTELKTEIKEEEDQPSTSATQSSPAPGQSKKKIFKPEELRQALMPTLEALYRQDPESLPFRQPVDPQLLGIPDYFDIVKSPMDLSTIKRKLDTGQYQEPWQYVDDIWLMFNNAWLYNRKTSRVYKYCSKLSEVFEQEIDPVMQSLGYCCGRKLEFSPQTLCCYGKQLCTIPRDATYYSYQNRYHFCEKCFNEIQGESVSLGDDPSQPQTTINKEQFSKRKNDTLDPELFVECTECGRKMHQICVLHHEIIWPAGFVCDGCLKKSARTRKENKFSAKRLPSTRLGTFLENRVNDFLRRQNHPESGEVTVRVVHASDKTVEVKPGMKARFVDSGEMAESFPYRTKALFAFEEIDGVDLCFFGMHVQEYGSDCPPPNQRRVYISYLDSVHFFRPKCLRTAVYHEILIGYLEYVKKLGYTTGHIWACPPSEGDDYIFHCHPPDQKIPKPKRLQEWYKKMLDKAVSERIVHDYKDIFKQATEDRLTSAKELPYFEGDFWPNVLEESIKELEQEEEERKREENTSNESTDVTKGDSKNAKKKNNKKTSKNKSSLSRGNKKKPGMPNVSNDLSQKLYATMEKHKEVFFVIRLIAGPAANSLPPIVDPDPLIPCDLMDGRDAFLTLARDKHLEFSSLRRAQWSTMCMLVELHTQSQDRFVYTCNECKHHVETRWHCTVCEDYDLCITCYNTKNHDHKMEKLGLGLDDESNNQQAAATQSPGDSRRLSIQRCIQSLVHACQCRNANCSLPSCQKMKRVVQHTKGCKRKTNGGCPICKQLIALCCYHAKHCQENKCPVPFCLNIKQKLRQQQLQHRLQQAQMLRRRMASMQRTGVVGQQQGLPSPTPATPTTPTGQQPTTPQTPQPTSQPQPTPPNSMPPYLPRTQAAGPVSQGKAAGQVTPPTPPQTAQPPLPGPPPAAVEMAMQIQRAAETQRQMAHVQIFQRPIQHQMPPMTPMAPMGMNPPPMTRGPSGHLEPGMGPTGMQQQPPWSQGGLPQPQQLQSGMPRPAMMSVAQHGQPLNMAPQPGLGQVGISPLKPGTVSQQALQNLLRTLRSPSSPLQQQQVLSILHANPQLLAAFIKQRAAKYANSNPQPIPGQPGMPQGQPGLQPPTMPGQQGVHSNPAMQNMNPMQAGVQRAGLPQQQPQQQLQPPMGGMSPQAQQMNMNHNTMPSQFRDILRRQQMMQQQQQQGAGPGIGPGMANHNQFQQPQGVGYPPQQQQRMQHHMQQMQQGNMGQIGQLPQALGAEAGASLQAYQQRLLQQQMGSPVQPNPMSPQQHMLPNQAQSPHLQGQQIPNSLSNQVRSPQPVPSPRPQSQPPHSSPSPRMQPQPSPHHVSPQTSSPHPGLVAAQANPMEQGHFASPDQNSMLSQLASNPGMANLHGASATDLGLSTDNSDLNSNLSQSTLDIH
row,Variant,effect of a mutation on the interaction
1,MHQKRTAMFQDPQERPRKLPQLCTELQTTIHDIILECVYCKQQLLRREVYDYAYRHLCIVYRDGNPYAVCDKCLKFYSKISEYRHYCYSLYGTTLEQQYNKPLCDLLIRCINCQKPLCPEEKQRHLDKKQRFHNIRGRWTGRCMSCCRSSRTRRETQL [F52Y;F54Y;D56H],disrupting interaction

# Variants of: B1
# Settings: with ep300_human EP300, Q09472
# Remark: another data set of the same source
row,Variant,effect of a mutation on the interaction
1,MHQKRTAMFQDPQERPRKLPQLCTELQTTIHDIILECVYCKQQLLRREVYDYAYRHLCIVYRDGNPYAVCDKCLKFYSKISEYRHYCYSLYGTTLEQQYNKPLCDLLIRCINCQKPLCPEEKQRHLDKKQRFHNIRGRWTGRCMSCCRSSRTRRETQL [F52Y;F54Y;D56H],decreasing interaction
2,MHQKRTAMFQDPQERPRKLPQLCTELQTTIHDIILECVYCKQQLLRREVYDFAFRDLCIVYRDGNPYAVCDKGLKFYSKISEYRHYCYSLYGTTLEQQYNKPLCDLLIRCINCQKPLCPEEKQRHLDKKQRFHNIRGRWTGRGMSCCRSSRTRRETQL [C73G;C143G],disrupting interaction
3,MHQKRTAMFQDPQESATKLPQLCTELQTTIHDIILECVYCKQQLLRREVYDFAFRDLCIVYRDGNPYAVCDKCLKFYSKISEYRHYCYSLYGTTLEQQYNKPLCDLLIRCINCQKPLCPEEKQRHLDKKQRFHNIRGRWTGRCMSCCRSSRTRRETQL [R15S;P16A;R17T],decreasing interaction
